Laboratory results as given in patent publication US20160376339A1 (CURACLE, published 2016).
Where no end group is shown, it is not given here.

What was measured:
[1] = target: T1, His-tagged PH domain of PDK1 (purified) (UniProt O15530 409-556, limits assumed); assay: Far-western analysis and GST pull-down with purified proteins
T1 construct: domain: PH domain; Expressed in E. coli BL21 and purified on Ni2+-NTA-agarose; also called His-PH; His-tagged PDK1PH; not shown: His tag from vector pET32a
T1 sequence (looked up): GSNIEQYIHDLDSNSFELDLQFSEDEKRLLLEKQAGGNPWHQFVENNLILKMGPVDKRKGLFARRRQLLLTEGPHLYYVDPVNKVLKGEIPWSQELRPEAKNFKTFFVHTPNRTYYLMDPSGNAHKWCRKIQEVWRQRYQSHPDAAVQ

Flag-PDK1 [2] = target: T2, Flag-PDK1 (UniProt O15530 1-556, limits assumed); assay: co-immunoprecipitation of GFP-tagged deletion mutants with Flag-PDK1
T2 construct: Expressed in HEK293T cells for co-immunoprecipitation; not shown: Flag tag
T2 sequence (looked up): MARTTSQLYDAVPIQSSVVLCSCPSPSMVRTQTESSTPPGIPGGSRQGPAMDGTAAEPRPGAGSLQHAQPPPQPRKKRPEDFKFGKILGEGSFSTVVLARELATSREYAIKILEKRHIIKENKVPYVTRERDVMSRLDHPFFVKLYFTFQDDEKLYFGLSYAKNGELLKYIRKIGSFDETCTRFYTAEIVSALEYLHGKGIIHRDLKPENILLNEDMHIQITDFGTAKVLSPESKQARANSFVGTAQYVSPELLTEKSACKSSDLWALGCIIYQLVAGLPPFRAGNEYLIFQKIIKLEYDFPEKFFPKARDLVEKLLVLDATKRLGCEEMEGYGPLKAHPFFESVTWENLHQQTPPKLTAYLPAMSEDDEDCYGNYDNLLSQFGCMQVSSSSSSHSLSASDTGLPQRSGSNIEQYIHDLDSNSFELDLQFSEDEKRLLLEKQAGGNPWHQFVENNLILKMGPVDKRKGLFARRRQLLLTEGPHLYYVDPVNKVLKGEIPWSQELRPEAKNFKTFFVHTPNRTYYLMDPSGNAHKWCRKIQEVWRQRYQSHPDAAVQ

Flag-PDK1 [3] = target: T2, Flag-PDK1; assay: co-immunoprecipitation of GFP-tagged truncated AMIGO2 with Flag-PDK1

B1: GST-tagged AMIGO2 420-454 (other)
chain: TPCPCKCKTKRQKNMLHQSNAHSSILSPGPASDAS
modifications: cysteine pairing not given here; also: GST tag of pGEX 4T1 (sequence not given here)
notes: Same forward primer and linker as GST-CD; not shown: glutathione S-transferase tag of vector pGEX 4T1
B1: no binding [1].

B2: GST-tagged AMIGO2 420-464 (other)
chain: TPCPCKCKTKRQKNMLHQSNAHSSILSPGPASDASADERKAGAGK
modifications: cysteine pairing not given here; also: GST tag of pGEX 4T1 (sequence not given here)
notes: as for B1
B2: no binding [1].

B3: AMIGO2^ΔCD (GFP-tagged AMIGO2 with residues 420-522 deleted) (receptor)
chain: VCPTACICATDIVSCTNKNLSKVPGNLFRLIKRLDLSYNRIGLLDSEWIPVSFAKLNTLILRHNNITSISTGSFSTTPNLKCLDLSSNKLKTVKNAVFQELKVLEVLLLYNNHISYLDPSAFGGLSQLQKLYLSGNFLTQFPMDLYVGRFKLAELMFLDVSYNRIPSMPMHHINLVPGKQLRGIYLHGNPFVCDCSLYSLLVFWYRRHFSSVMDFKNDYTCRLWSDSRHSRQVLLLQDSFMNCSDSIINGSFRALGFIHEAQVGERLMVHCDSKTGNANTDFIWVGPDNRLLEPDKEMENFYVFHNGSLVIESPRFEDAGVYSCIAMNKQRLLNETVDVTINVSNFTVSRSHAHEAFNTAFTTLAACVASIVLVLLYLYL
notes: The range 1-419 is derived from it; also called AMIGO2 without cytosolic Domain; not shown: EGFP tag
B3: no binding (Flag-PDK1 [2]).

B4: AMIGO2^457aa (GFP-tagged AMIGO2 truncated after residue 457) (receptor)
chain: VCPTACICATDIVSCTNKNLSKVPGNLFRLIKRLDLSYNRIGLLDSEWIPVSFAKLNTLILRHNNITSISTGSFSTTPNLKCLDLSSNKLKTVKNAVFQELKVLEVLLLYNNHISYLDPSAFGGLSQLQKLYLSGNFLTQFPMDLYVGRFKLAELMFLDVSYNRIPSMPMHHINLVPGKQLRGIYLHGNPFVCDCSLYSLLVFWYRRHFSSVMDFKNDYTCRLWSDSRHSRQVLLLQDSFMNCSDSIINGSFRALGFIHEAQVGERLMVHCDSKTGNANTDFIWVGPDNRLLEPDKEMENFYVFHNGSLVIESPRFEDAGVYSCIAMNKQRLLNETVDVTINVSNFTVSRSHAHEAFNTAFTTLAACVASIVLVLLYLYLTPCPCKCKTKRQKNMLHQSNAHSSILSPGPASDASADE
notes: The range 1-457 is read from the name and from the reverse primer with its stop codon; also called 457aa construct; not shown: EGFP tag
B4: no binding (Flag-PDK1 [3]).
